To fix the notation:
B1: Ab0370 (antibody, IgG4, V domains shown)
VH: QVTLKESGPVLVKPTETLTLTCTVSGFSLNNARVGVSWIRQPPGKALEWLAWIFSNDEKSYSTSLKSRLTISKDTSKSQVVLTMTNMDPVDTATYYCARSVVTGGYYYEGMDVWGQGTTVTVSS
VL: SYVLTQPPSVSVAPGQTARITCGGNNIGSESVHWYQQKPGQAPVLVVDDSDRPSGIPERFSGSNSGNTATLTISRVEAGDEADYYCQVHDGNSDHVVFGGGTKLTVLG

The EC50 is the concentration that produces a half-maximal response. A word on the Emax: it is the size of the effect at its maximum, as opposed to the concentration needed.

Ends that are not written are not given here.

human GIP receptor (human), sequence (P48546 22-466): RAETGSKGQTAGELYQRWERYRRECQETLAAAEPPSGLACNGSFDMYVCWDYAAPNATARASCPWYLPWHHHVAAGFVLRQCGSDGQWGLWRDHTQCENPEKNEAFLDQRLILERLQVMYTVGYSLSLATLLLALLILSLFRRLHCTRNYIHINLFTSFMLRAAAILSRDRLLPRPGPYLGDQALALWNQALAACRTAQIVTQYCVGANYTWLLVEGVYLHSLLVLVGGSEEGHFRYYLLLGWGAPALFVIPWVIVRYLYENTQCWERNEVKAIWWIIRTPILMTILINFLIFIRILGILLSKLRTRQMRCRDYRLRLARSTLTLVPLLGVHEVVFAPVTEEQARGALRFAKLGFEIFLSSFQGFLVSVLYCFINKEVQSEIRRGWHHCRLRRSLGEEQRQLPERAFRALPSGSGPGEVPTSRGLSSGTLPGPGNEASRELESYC

The target of one assay is human GLP-1 receptor (human) (UniProt P43220). In words: cell-based or functional assay.
human GLP-1 receptor (human), sequence (P43220 24-463): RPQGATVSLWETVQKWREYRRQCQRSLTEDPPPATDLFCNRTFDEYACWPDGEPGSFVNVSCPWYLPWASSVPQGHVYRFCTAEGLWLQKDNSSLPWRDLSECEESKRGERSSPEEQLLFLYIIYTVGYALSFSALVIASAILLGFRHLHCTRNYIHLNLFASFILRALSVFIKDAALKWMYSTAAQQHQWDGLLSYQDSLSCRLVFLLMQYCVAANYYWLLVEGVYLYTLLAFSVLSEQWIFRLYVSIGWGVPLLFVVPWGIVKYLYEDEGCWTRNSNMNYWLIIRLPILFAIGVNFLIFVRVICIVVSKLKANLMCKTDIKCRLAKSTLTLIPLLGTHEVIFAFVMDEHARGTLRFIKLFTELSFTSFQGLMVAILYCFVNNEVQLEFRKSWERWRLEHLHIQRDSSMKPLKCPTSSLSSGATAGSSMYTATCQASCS
In turn, GHGEGTFTSDLSIQLEEEAVRLFIEWLLATGPSSGAPPPS-NH2 [P020] displayed an HTRF cAMP EC50 of 0.206 nM.

GHGEGTFTSDKSKQLEEEAVRLFIEWLKAGGPKKIRYS-NH2 [P014] had an HTRF cAMP EC50 of 0.0105 nM.

GHGEGTFTSDLSIQLEEEAVRLFIEWLLAGGPSSGAPPPS-NH2 [P019] displayed an HTRF cAMP EC50 of 0.0276 nM.

For GHGEGTFTSDKSKQLEEEAVRLFIEWLKAGGPSSGAPPPS-NH2 [P021], the HTRF cAMP EC50 amounted to 0.0276 nM.

HGEGTFTSDLSKQLEEERVQLFIEWLKATGPSSGAPPPS-NH2 [P008] yielded an HTRF cAMP EC50 of 0.0232 nM.

GHGEGTFTSDLSKQLEEEAVRLFIEWLKAGGPKKIRYS-NH2 [P013] showed an HTRF cAMP EC50 of 0.0099 nM.

In the case of GHGEGTFTSDLSKQLEEEAVRLFIEWLKAGGPSSGAPPPS-NH2 [P017], the HTRF cAMP EC50 worked out at 0.0085 nM.

As for HGEGTFTSDLSKQLEEEAVQLFIEWLLATGPSSGAPPPS-NH2 [P010], the HTRF cAMP EC50 amounted to 0.0035 nM.

In the next assay the target is human glucagon receptor (human) (UniProt P47871). In words: cell-based or functional assay.
human glucagon receptor (human), sequence (P47871 26-477): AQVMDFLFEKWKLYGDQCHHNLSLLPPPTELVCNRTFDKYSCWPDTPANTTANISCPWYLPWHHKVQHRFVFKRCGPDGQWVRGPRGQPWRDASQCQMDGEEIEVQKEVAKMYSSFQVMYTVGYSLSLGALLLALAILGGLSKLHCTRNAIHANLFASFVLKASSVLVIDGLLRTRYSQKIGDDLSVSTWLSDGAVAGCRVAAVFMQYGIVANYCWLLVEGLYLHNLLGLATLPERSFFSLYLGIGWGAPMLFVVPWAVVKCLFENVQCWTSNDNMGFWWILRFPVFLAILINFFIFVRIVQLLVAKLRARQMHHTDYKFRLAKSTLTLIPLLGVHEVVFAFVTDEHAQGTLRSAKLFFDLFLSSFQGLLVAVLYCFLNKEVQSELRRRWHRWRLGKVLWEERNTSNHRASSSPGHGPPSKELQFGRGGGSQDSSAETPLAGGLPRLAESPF
In turn, GHGEGTFTSDKSKQLEEEAVRLFIEWLKAGGPKKIRYS-NH2 [P014] returned an HTRF cAMP EC50 of 5.4 nM.

The molecule GHGEGTFTSDKSKQLEEEAVRLFIEWLKAGGPSSGAPPPS-NH2 [P021] showed an HTRF cAMP EC50 of more than 10 nM.

HGEGTFTSDLSKQLEEERVQLFIEWLKATGPSSGAPPPS-NH2 [P008] gave an HTRF cAMP EC50 of more than 10 nM.

GHGEGTFTSDLSKQLEEEAVRLFIEWLKAGGPKKIRYS-NH2 [P013] yielded an HTRF cAMP EC50 of more than 10 nM.

As for GHGEGTFTSDLSKQLEEEAVRLFIEWLKAGGPSSGAPPPS-NH2 [P017], the HTRF cAMP EC50 was more than 10 nM.

Another assay concerns the target human GIP receptor (human) (UniProt P48546). The experiment in a line: cell-based or functional assay.
GHGEGTFTSDKSKQLEEEAVRLFIEWLKAGGPKKIRYS-NH2 [P014] came in with an HTRF cAMP EC50 of more than 10 nM.

Molecule GHGEGTFTSDKSKQLEEEAVRLFIEWLKAGGPSSGAPPPS-NH2 [P021] came in with an HTRF cAMP EC50 of more than 10 nM.

As to HGEGTFTSDLSKQLEEERVQLFIEWLKATGPSSGAPPPS-NH2 [P008], the HTRF cAMP EC50 is more than 10 nM.

Take GHGEGTFTSDLSKQLEEEAVRLFIEWLKAGGPKKIRYS-NH2 [P013]: the HTRF cAMP EC50 was more than 10 nM.

Consider GHGEGTFTSDLSKQLEEEAVRLFIEWLKAGGPSSGAPPPS-NH2 [P017], for which the HTRF cAMP EC50 is more than 10 nM.

Another assay deals with human FGFR1c + KLB receptor complex on HEK293 iLite FGF21 reporter cells (human) (UniProt P11362). In words: cell-based or functional assay.
human FGFR1c + KLB receptor complex on HEK293 iLite FGF21 reporter cells (human), sequence (P11362 22-822, chain 1 of 2): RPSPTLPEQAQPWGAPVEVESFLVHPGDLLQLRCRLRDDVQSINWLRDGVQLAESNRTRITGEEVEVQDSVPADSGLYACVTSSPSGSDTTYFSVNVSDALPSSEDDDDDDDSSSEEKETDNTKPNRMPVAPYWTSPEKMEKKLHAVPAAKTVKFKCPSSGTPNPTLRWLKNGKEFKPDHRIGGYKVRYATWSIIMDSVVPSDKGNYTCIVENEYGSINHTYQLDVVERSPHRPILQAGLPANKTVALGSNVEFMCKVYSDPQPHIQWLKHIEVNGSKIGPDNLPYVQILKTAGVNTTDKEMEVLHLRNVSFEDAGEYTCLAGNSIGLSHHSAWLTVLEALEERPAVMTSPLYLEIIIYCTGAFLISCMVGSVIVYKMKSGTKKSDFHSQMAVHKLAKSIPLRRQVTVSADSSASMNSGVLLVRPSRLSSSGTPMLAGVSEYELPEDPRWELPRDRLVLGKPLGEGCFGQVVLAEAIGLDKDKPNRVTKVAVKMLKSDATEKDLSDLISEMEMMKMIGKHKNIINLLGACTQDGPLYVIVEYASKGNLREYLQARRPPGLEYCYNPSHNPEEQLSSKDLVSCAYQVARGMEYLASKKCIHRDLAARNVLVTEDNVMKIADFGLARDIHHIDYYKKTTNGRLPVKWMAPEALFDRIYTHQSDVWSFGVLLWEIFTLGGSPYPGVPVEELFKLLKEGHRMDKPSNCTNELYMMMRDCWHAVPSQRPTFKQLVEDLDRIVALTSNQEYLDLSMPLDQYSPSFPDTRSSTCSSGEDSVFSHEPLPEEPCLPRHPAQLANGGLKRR
human FGFR1c + KLB receptor complex on HEK293 iLite FGF21 reporter cells (human), sequence (Q86Z14 whole entry, chain 2 of 2, further chain): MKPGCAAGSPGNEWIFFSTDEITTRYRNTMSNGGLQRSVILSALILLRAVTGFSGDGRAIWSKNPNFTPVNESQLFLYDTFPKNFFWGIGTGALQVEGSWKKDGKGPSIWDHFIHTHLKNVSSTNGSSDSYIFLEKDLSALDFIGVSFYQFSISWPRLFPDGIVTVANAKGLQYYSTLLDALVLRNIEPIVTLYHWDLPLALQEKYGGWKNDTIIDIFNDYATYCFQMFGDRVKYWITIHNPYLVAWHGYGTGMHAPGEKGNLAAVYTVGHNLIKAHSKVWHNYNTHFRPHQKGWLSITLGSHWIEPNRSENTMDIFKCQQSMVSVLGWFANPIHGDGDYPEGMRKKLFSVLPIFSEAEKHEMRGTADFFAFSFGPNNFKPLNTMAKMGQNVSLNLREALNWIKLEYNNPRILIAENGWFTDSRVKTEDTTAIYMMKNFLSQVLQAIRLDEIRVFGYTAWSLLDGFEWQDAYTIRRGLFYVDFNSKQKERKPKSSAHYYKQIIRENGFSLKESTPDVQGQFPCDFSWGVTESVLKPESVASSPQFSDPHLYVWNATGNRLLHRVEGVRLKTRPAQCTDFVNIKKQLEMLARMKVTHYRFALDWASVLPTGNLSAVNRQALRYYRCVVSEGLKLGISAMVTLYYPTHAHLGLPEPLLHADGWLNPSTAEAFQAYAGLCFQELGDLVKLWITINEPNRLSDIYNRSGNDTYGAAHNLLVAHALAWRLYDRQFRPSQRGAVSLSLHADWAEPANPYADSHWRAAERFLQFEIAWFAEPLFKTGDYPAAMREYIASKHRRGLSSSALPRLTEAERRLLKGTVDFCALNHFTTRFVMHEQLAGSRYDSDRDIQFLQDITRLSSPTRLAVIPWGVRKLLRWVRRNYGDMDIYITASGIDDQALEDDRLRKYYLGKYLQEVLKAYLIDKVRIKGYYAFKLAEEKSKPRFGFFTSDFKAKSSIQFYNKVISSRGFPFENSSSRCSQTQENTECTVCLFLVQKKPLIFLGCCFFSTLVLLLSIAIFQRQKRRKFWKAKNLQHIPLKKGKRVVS
On to B1, for which the EC50 is more than 100 nM and the maximal effect (Emax) stood at 490%.

Source of the values: patent US20220010021A1.
